Test results published in US20090291088A1, “THERAPEUTIC COMBINATIONS OF ANTI-IGF-1R ANTIBODIES AND OTHER COMPOUNDS” (Biogen Idec MA Inc., priority 2008, published 2009).

Experiments:
Calu-6 = test: IGF driven tumor cell growth, CELL TITER-GLO, Calu-6; format: cell-based, human; details: lung cancer cells
Description: NCI-H23, Calu-6, Colo-205, Panc-1, BxPC-3 (ATCC) tumor lines were purchased from ATCC. Cell lines were grown in complete growth medium containing RPMI-1640 (ATCC), 10% fetal bovine serum (Irvine Scientific Inc.) and 50 μg/ml of Gentamycin (Gibco, Invitrogen). Trypsin-EDTA solution (Sigma) was used for removal of adherent cells from culture vessels. Phosphate buffered saline, pH 7.2, was from MediaTech Inc The 96-well clear bottom plates for luminescent assay was purchased from Wallac Inc.
Cells grown to 80% monolayers were, trypsinized, washed, resuspended and plated into 96-well plates in 200 μl of 2% growth medium at 8×10^3 cells/well for NCI-H23 and Colo-205 cells; and 5×10^3 cells/well for Calu-6, Panc-1 and BxPC-3 cells. After 24 hours, the culture medium was replaced with 100 μl of serum free medium (SFM), and 50 μl of serially diluted antibodies at 4× concentration was added. […] All treatments were done in triplicates. Cell growth was measured using the CELL TITER-GLO™ Luminescent Cell Viability Assay (Promega, Madison, Wis.). The 1:1 mixture of reagent and SFM was added at 200 μl/well. Luminescence was detected on Wallac (Boston, Mass.) plate reader.
The ability of the selected murine antibodies to inhibit IGF/IGF-1R dependent in vitro growth of several human tumor lines (Lung, H-23, Calu-6; Pancreas, BxPc-3, Panc-1, MiaPaCa and Colon Colo205) was measured by a proliferation assay described in Example 13.

IGF-1R = biological target: T1, IGF-1R (Homo sapiens, UniProt P08069); test: Ligand blocking assay (RIA): 125I-IGF-1 / 125I-IGF-2 binding to immobilized IGF-1R
T1 construct: human IGF-1R(1-903)-Fc (denoted hIGF-1R-Fc, generated by Biogen Idec)
How it was run: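 Recombinant His-tagged IGF-1R or IGF-1R-Fc coated at 250 ng/well (or IGF-1R-Fc captured via anti-human IgG); antibody or Fab preincubated 45 min at room temperature, then 100,000 cpm [125I]rhIGF-1 or rhIGF-2 added for 1 h. Bound radioactivity gamma-counted; % inhibition relative to buffer-only wells.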

MCF-7 = test: Ki67 inhibition in MCF-7 cells; format: cell-based, human; details: breast cancer cell

B1: 20C8.3B8: murine anti-human IGF-1R monoclonal antibody from hybridoma; VH SEQ ID NO:43, VL SEQ ID NO:103 (antibody, V domains shown)
VH: DVQLQESGPDLVKPSQSLSLTCTVTGYSITSGYSWHWIRQFPGNKLEWMGYIHYSGGTNYNPSLKSRISITRDTSKNQFFLQLNSVTTEDTATYYCARSGYGYRSAYYFDYWGQGTTVTVSS
VL: DIVLTQSPASLAVSLGQRATISCRASKSVSTSAYSYMHWYQQKPGQPPKLLIYLASNLESGVPARFSGSGSGTDFTLNIHPVEEEDAATYYCQHSRELPYTFGGGTKLEIK
modifications: Antibody variable heavy chain sequence; Antibody variable light chain sequence
Calu-6
  Proliferation of Tumor Cells Calu-6: +++ (>30%@0.1 μg/ml)
IGF-1R; murine monoclonal antibodies
  IGF Blocking IGF-1: +++ (>40%@0.1 μg/ml)
  IGF Blocking IGF-2: +++ (>40%@0.1 μg/ml)
MCF-7
  Proliferation of Tumor Cells MCF-7* (Ki67 Inhibit.): +++ (>50%@0.1 μg/ml)

B2: 20D8.24B11: murine anti-human IGF-1R monoclonal antibody from hybridoma; VH SEQ ID NO:53, VL SEQ ID NO:103 (antibody, V domains shown)
VH: DVQLQESGPDLVKPSQSLSLTCTVTGYSITSGYSWHWIRQFPGNKLEWMGYIHYSGGTNYNPSLKSRISITRDTSKNQFFLQLNSVTTEDTATYYCARSGYGYRSAYYFDYWGQGTTLTVSS
VL: DIVLTQSPASLAVSLGQRATISCRASKSVSTSAYSYMHWYQQKPGQPPKLLIYLASNLESGVPARFSGSGSGTDFTLNIHPVEEEDAATYYCQHSRELPYTFGGGTKLEIK
modifications: Antibody variable heavy chain sequence; Antibody variable light chain sequence
Calu-6
  Proliferation of Tumor Cells Calu-6: +++ (>30%@0.1 μg/ml)
IGF-1R; murine monoclonal antibodies
  IGF Blocking IGF-1: +++ (>40%@0.1 μg/ml)
  IGF Blocking IGF-2: +++ (>40%@0.1 μg/ml)
MCF-7
  Proliferation of Tumor Cells MCF-7* (Ki67 Inhibit.): ++ (>50%@1 μg/ml)

B3: M14-C03: anti-IGF-1R antibody, allosteric blocker of IGF-1 and IGF-2 (antibody, V domains shown)
VH: EVQLLESGGGLVQPGGSLRLSCAASGFTFSKYMMSWVRQAPGKGLEWVSYISPSGGLTWYADSVKGRFTISRDNSKNTLYLQMNSLRAEDTAVYYCARDGARGYGMDVWGQGTTVTVSS
VL: DIQMTQSPATLSLSPGERATLSCRASQSVSSYLAWYQQKPGQAPRLLIYDASNRATGIPARFSGSGSGTDFTLTISSLEPEDFAVYYCQQRSNWPPEVTFGPGTKVDIK
modifications: Antibody variable heavy chain sequence; Antibody variable light chain sequence
IGF-1R; Fabs, 125I-IGF-2
  IGF Blocking IGF-2: + (>30%@10ug/ml)

B4: Fab M12-E01: human anti-human IGF-1R Fab from phage display library; VH SEQ ID NO:4, VL SEQ ID NO:68 (antibody, V domains shown)
VH: EVQLLESGGGLVQPGGSLRLSCAASGFTFSPYSMLWVRQAPGKGLEWVSSIGSSGGSTRYADSVKGRFTISRDNSKNTLYLQMNSLRAEDTAMYYCARVRGILHYDILIGRNLYYYYMDVWGKGTTVTVSS
VL: QYELTQPPSVSEAPRQRVTISCSGSSSNIGNNAINWYQQLPGKPPKLLIYYDDLLPSGVSDRFSGSKSGTSGSLAISGLQSEDEADYYCAAWDDNLNGVIFGGGTKLTVL
modifications: Antibody variable heavy chain sequence; Antibody variable light chain sequence
IGF-1R; Fabs, 125I-IGF-2
  IGF Blocking IGF-2: ++ (>30%@1ug/ml)
